# Results published in the supplement of paper PMC10126150.
# ± gives the standard deviation of the averaged measurements.
# System: ATP
# Assay: switch fluorescence ratio, 500 uM ATP over buffer (Cy3 cluster intensity, sum of 5 cycles each) (fold (ratio)); higher = stronger signal-on switching upon ATP binding; sequences stand for … in TCGTCGGCAGCGTCAGATGTGTATAAGAGACAGTTTTTTTTTTTTTTTTTTTTTTTTT…TC
# Conditions: aptamer strand: ATP DNA aptamer (quencher-CACCTGGGGGAGTATTGCGGAGGAAGG + anchor), 100 nM annealed; ATP concentration: 500 uM
# In short: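 Cy3-labelled switching-strand clusters on a modified Illumina MiSeq flow-cell were annealed to 100 nM quencher-labelled ATP aptamer and imaged first in selection buffer, then after 15 min with 500 uM ATP at 22 °C. NaOH stripping and re-annealing separated each of five buffer/ATP cycles, and clusters outside 100-1000 RFU were excluded. The fluorescence ratio sums target-cycle Cy3 intensity over buffer-cycle Cy3 intensity per cluster and averages it per switch-domain sequence.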
# 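Note: ATP exposure 15 min at 22 °C before imaging.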
row,Sequence,switch fluorescence ratio
1,TATAAAAGTG,0.958 ± 0.053
2,TATAAATTGC,1.01 ± 0.016
3,TATAACGCGC,1.11 ± 0.061
4,TATAAGACAT,1.03 ± 0.038
5,TATAAGACTT,1.01 ± 0.035
6,TATAAGAGTG,1.03 ± 0.032
7,TATAAGGGAG,0.996 ± 0.023
8,TATAAGGGTT,1.01 ± 0.017
9,TATAATCTGT,1.01 ± 0.017
10,TATACCGCGA,2.49 ± 0.29
11,TATACCGGCG,1.05 ± 0.076
12,TATACCTAGG,1.003 ± 0.0065
13,TATACGTGTG,1.031 ± 0.0043
14,TATACTATGT,1.05 ± 0.024
15,TATACTTAAT,1.059 ± 0.0053
16,TATAGAGGGG,1.07 ± 0.15
17,TATAGATAAG,1.01 ± 0.015
18,TATAGATTGG,0.985 ± 0.019
19,TATAGCATTA,1.04 ± 0.014
20,TATAGCCGAA,1 ± 0.083
21,TATAGGAGGG,0.991 ± 0.039
22,TATAGGCGCG,1.03 ± 0.072
23,TATAGGGACA,1.2 ± 0.03
24,TATAGGGATT,0.984 ± 0.015
25,TATAGGGGGT,1.01 ± 0.036

row,Sequence,switch fluorescence ratio
1,TATAGGGGTG,1.03 ± 0.039
2,TATAGGTAAT,1.03 ± 0.011
3,TATAGGTGCA,0.997 ± 0.024
4,TATAGTATGT,1.01 ± 0.015
5,TATATAAATT,0.985 ± 0.021
6,TATATATAAC,1.006 ± 0.0081
7,TATATATAGG,1 ± 0.025
8,TATATATTAA,1.001 ± 0.0023
9,TATATATTGC,1.02 ± 0.03
10,TATATCAATC,0.991 ± 0.013
11,TATATCGTC,1.19 ± 0.31
12,TATATCTTCA,1.017 ± 0.0055
13,TATATGCGCG,0.994 ± 0.041
14,TATATGGGGC,1.03 ± 0.03
15,TATATGGTGG,1.02 ± 0.056
16,TATATGGTTG,0.9383 ± 0.0022
17,TATATGTCCA,1 ± 0.027
18,TATATTACCC,1.05 ± 0.065
19,TATATTAGGT,1.13 ± 0.1
20,TATATTCTTA,1 ± 0.065
21,TATATTGAGG,0.991 ± 0.042
22,TATATTGGGA,0.992 ± 0.022
23,TATATTGTAA,1.01 ± 0.013
24,TATATTTAAG,1.01 ± 0.03
25,TATATTTCGG,0.995 ± 0.044

row,Sequence,switch fluorescence ratio
1,TATCAGTCGT,0.988 ± 0.032
2,TATCATATCA,0.956 ± 0.017
3,TATCATGTGA,1.01 ± 0.011
4,TATCATTGGG,0.968 ± 0.029
5,TATCATTTTG,0.986 ± 0.057
6,TATCCCTGTT,0.976 ± 0.013
7,TATCCGGGGT,1.03 ± 0.025
8,TATCCTTTCA,1.04 ± 0.026
9,TATCCTTTGA,1.002 ± 0.0014
10,TATCGAATCC,0.99 ± 0.025
11,TATCGAGCAT,1.028 ± 0.0096
12,TATCGAGTTT,1 ± 0.038
13,TATCGGAAGG,0.9901 ± 0.0013
14,TATCGGCGTG,0.98796 ± 0.00031
15,TATCGGGGCT,0.981 ± 0.064
16,TATCGGGGGT,1.02 ± 0.039
17,TATCGGTCGG,0.98 ± 0.021
18,TATCGGTGTT,0.991 ± 0.027
19,TATCGTACAG,1.06 ± 0.011
20,TATCGTAGGA,0.977 ± 0.032
21,TATCGTATTG,0.979 ± 0.011
22,TATCGTGATG,0.992 ± 0.039
23,TATCTAAAAC,1.001 ± 0.0032
24,TATCTAGAGG,1.01 ± 0.022
25,TATCTCAGAA,0.99 ± 0.014

row,Sequence,switch fluorescence ratio
1,TATCTCTGGG,1.02 ± 0.014
2,TATCTGGGGC,1.04 ± 0.025
3,TATGAAAATC,0.983 ± 0.03
4,TATGAAGAAG,0.994 ± 0.054
5,TATGAAGTCG,0.9937 ± 0.0098
6,TATGAATAGC,1.02 ± 0.05
7,TATGAATTTG,1 ± 0.028
8,TATGACACTT,1.03 ± 0.047
9,TATGACAGGG,1.05 ± 0.024
10,TATGACATGG,0.959 ± 0.011
11,TATGAGAGGC,1.04 ± 0.035
12,TATGAGCTGG,0.97 ± 0.015
13,TATGAGGAGT,0.982 ± 0.015
14,TATGAGTAAT,0.9866 ± 0.0093
15,TATGATATCC,0.9783 ± 0.0089
16,TATGATGGGT,1.015 ± 0.01
17,TATGATGTTA,0.9931 ± 0.0093
18,TATGCATATT,1.04 ± 0.032
19,TATGCCTGTG,1.01 ± 0.036
20,TATGCTGGTT,1.05 ± 0.061
21,TATGCTTTAA,1.01 ± 0.024
22,TATGGAAACG,0.981 ± 0.011
23,TATGGAAAGG,0.994 ± 0.016
24,TATGGAATTT,0.985 ± 0.009
25,TATGGAGACC,0.9917 ± 0.0049

row,Sequence,switch fluorescence ratio
1,TATGGAGAGC,1.02 ± 0.038
2,TATGGAGGGT,1.01 ± 0.022
3,TATGGAGTTG,0.992 ± 0.032
4,TATGGATCTA,0.986 ± 0.048
5,TATGGCATAC,1.51 ± 0.02
6,TATGGCGGAG,0.9975 ± 0.0061
7,TATGGCTTTG,0.9945 ± 0.0061
8,TATGGGAAGA,0.985 ± 0.027
9,TATGGGCCTA,0.971 ± 0.053
10,TATGGGCTAC,1.56 ± 0.74
11,TATGGGCTGG,0.979 ± 0.049
12,TATGGGGAAT,1.03 ± 0.098
13,TATGGGGCTT,0.992 ± 0.017
14,TATGGGGTAT,0.9863 ± 0.0055
15,TATGGGGTGT,1.01 ± 0.033
16,TATGGGTACG,1.01 ± 0.016
17,TATGGGTCGG,1 ± 0.043
18,TATGGGTGGG,0.964 ± 0.018
19,TATGGTCAG,1.02 ± 0.042
20,TATGGTGAGG,0.976 ± 0.013
21,TATGGTGGGT,0.995 ± 0.027
22,TATGGTGTTC,0.981 ± 0.015
23,TATGGTTTTG,1.01 ± 0.017
24,TATGTACATG,1 ± 0.026
25,TATGTAGGGC,1.02 ± 0.05

row,Sequence,switch fluorescence ratio
1,TATGTCGGCG,0.991 ± 0.055
2,TATGTCGGTT,0.985 ± 0.033
3,TATGTCTCCG,1.03 ± 0.017
4,TATGTCTCGC,0.995 ± 0.044
5,TATGTGAGCT,1.01 ± 0.024
6,TATGTGAGGG,0.988 ± 0.033
7,TATGTGAGTA,1.01 ± 0.013
8,TATGTGATGG,0.9874 ± 0.0053
9,TATGTGGACT,1 ± 0.057
10,TATGTGGGTA,0.983 ± 0.026
11,TATGTGTGAC,1.03 ± 0.021
12,TATGTTACCA,0.977 ± 0.046
13,TATGTTATTC,1.01 ± 0.045
14,TATGTTCACG,0.9924 ± 0.0042
15,TATGTTGCGT,0.9975 ± 0.0078
16,TATGTTGTCC,0.977 ± 0.018
17,TATGTTGTGA,0.9902 ± 0.0039
18,TATGTTTAAA,0.9922 ± 0.0042
19,TATGTTTCAG,0.972 ± 0.038
20,TATTAAATTG,0.9975 ± 0.0028
21,TATTAACATC,1.04 ± 0.014
22,TATTAAGATA,0.987 ± 0.043
23,TATTAATATT,1.003 ± 0.0059
24,TATTAATCGA,1 ± 0.016
25,TATTAATTCT,0.972 ± 0.036

row,Sequence,switch fluorescence ratio
1,TATTAATTGC,0.995 ± 0.025
2,TATTAATTTT,1.02 ± 0.015
3,TATTACAGGT,1.03 ± 0.0089
4,TATTACGGGG,1.005 ± 0.006
5,TATTAGATTT,0.996 ± 0.014
6,TATTAGGGTT,1.03 ± 0.045
7,TATTAGTACT,0.989 ± 0.011
8,TATTAGTGGG,0.979 ± 0.025
9,TATTAGTTGG,0.971 ± 0.023
10,TATTCGAAAT,1.02 ± 0.028
11,TATTCGCCTT,1.11 ± 0.12
12,TATTCGGTCG,0.993 ± 0.025
13,TATTCGTATT,0.981 ± 0.029
14,TATTCTAGTA,1.01 ± 0.022
15,TATTCTAGTG,1.013 ± 0.01
16,TATTCTCTTT,1.04 ± 0.081
17,TATTGAAAAA,1.06 ± 0.048
18,TATTGAACGA,1 ± 0.011
19,TATTGAAGAG,1.008 ± 0.0076
20,TATTGACCGT,1.04 ± 0.029
21,TATTGACGGA,1.006 ± 0.0096
22,TATTGCCTGT,0.974 ± 0.019
23,TATTGCTTT,0.977 ± 0.012
24,TATTGGCTTT,0.989 ± 0.014
25,TATTGGGAGG,0.968 ± 0.023

row,Sequence,switch fluorescence ratio
1,TATTGGTGCA,0.967 ± 0.017
2,TATTGTATGC,0.996 ± 0.037
3,TATTGTCTAC,0.9901 ± 0.0019
4,TATTGTGAAA,0.988 ± 0.012
5,TATTGTGAAT,1 ± 0.014
6,TATTGTGTCG,1.02 ± 0.016
7,TATTGTTTTG,0.986 ± 0.033
8,TATTTAAAAC,1.03 ± 0.021
9,TATTTAATTT,0.997 ± 0.026
10,TATTTAGACC,1.04 ± 0.012
11,TATTTAGAGG,1.01 ± 0.079
12,TATTTAGGGA,0.987 ± 0.022
13,TATTTAGGGT,1.01 ± 0.021
14,TATTTATAGC,1.02 ± 0.013
15,TATTTATCTG,1.02 ± 0.019
16,TATTTATGGT,0.976 ± 0.039
17,TATTTATGTC,1.02 ± 0.025
18,TATTTATTGT,1.01 ± 0.008
19,TATTTCATTT,1.06 ± 0.072
20,TATTTCCACT,1.023 ± 0.01
21,TATTTCGCGG,0.993 ± 0.045
22,TATTTCGGTG,0.982 ± 0.027
23,TATTTCTGTT,0.984 ± 0.025
24,TATTTGAAAT,1.01 ± 0.039
25,TATTTGAGGG,1 ± 0.041
